From US20240117018A1

What was measured:
Assay in all cases: cell-based or functional assay
[1] = biological target: HIV-1 Env of pseudovirus 0260.v5.c36 (HIV-1)
[2] = biological target: HIV-1 Env of pseudovirus 191084 B7-19 (HIV-1)
[3] = biological target: HIV-1 Env of pseudovirus 249M B10 (HIV-1)
[4] = biological target: HIV-1 Env of pseudovirus 6041.v3.c23 (HIV-1)
[5] = biological target: HIV-1 Env of pseudovirus AC10.0.29 (HIV-1)
[6] = biological target: HIV-1 Env of pseudovirus BJOX009000.02.4 (HIV-1)
[7] = biological target: HIV-1 Env of pseudovirus C1080.c03 (HIV-1)
[8] = biological target: HIV-1 Env of pseudovirus CAP210.2.00.E8 (HIV-1)
[9] = biological target: HIV-1 Env of pseudovirus CNE17 (HIV-1)
[10] = biological target: HIV-1 Env of pseudovirus CNE52 (HIV-1)
[11] = biological target: HIV-1 Env of pseudovirus CNE53 (HIV-1)
[12] = biological target: HIV-1 Env of pseudovirus CNE8 (HIV-1)
[13] = biological target: HIV-1 Env of pseudovirus Ce1086_B2 (HIV-1)
[14] = biological target: HIV-1 Env of pseudovirus Ce2010_F5 (HIV-1)
[15] = biological target: HIV-1 Env of pseudovirus Ce2060_G9 (HIV-1)
[16] = biological target: HIV-1 Env of pseudovirus Du172.17 (HIV-1)
[17] = biological target: HIV-1 Env of pseudovirus HIV-0013095-2.11 (HIV-1)
[18] = biological target: HIV-1 Env of pseudovirus MS208.A1 (HIV-1)
[19] = biological target: HIV-1 Env of pseudovirus PVO.4 (HIV-1)
[20] = biological target: HIV-1 Env of pseudovirus Q259.d2.17 (HIV-1)
[21] = biological target: HIV-1 Env of pseudovirus QH0692.42 (HIV-1)
[22] = biological target: HIV-1 Env of pseudovirus T250-4 (HIV-1)
[23] = biological target: HIV-1 Env of pseudovirus T278-50 (HIV-1)
[24] = biological target: HIV-1 Env of pseudovirus THRO4156.18 (HIV-1)
[25] = biological target: HIV-1 Env of pseudovirus TRO.11 (HIV-1)
[26] = biological target: HIV-1 Env of pseudovirus WEAU_d15_410_787 (HIV-1)
[27] = biological target: HIV-1 Env of pseudovirus WITO4160.33 (HIV-1)
[28] = biological target: HIV-1 Env of pseudovirus X1193_c1 (HIV-1)
[29] = biological target: HIV-1 Env of pseudovirus X1632_S2_B10 (HIV-1)
[30] = biological target: HIV-1 Env of pseudovirus X2088_c9 (HIV-1)
[31] = biological target: HIV-1 Env of pseudovirus ZM109F.PB4 (HIV-1)
[32] = biological target: HIV-1 Env of pseudovirus ZM135M.PL10a (HIV-1)
[33] = biological target: HIV-1 Env of pseudovirus ZM214M.PL15 (HIV-1)
[34] = biological target: HIV-1 Env of pseudovirus ZM233M.PB6 (HIV-1)
[35] = biological target: HIV-1 Env of pseudovirus ZM247v1(Rev-) (HIV-1)
[36] = biological target: HIV-1 Env of pseudovirus ZM53M.PB12 (HIV-1)

PGT151 (antibody) gave a neutralization IC50 [1] of 0.427 µg/mL, a neutralization IC80 [1] of over 50 µg/mL and a neutralization IC50 [2] of 0.004 µg/mL. It also gave a neutralization IC80 [2] of 0.016 µg/mL, a neutralization IC50 [3] of 0.007 µg/mL and a neutralization IC80 [3] of 0.023 µg/mL. It also gave an IC50 (Titer in TZM.bl cells) [4] of 0.004 µg/mL, an IC80 (Titer in TZM.bl cells) [4] of 0.024 µg/mL and a neutralization IC50 [5] of 0.007 µg/mL. For the same substance, the neutralization IC80 [5] was 0.023 µg/mL, the IC50 (Titer in TZM.bl cells) [6] was over 50 µg/mL and the IC80 (Titer in TZM.bl cells) [6] was over 50 µg/mL. The IC50 (Titer in TZM.bl cells) [7] was over 50 µg/mL, the IC80 (Titer in TZM.bl cells) [7] was over 50 µg/mL and the neutralization IC50 [8] was 0.01 µg/mL. The neutralization IC80 [8] was 0.208 µg/mL, the neutralization IC50 [9] was 0.093 µg/mL and the neutralization IC80 [9] was over 50 µg/mL. For the same substance, the neutralization IC50 [10] was 0.004 µg/mL, the neutralization IC80 [10] was 0.017 µg/mL and the neutralization IC50 [11] was over 50 µg/mL. The neutralization IC80 [11] was over 50 µg/mL, the IC50 (Titer in TZM.bl cells) [12] was over 50 µg/mL and the IC80 (Titer in TZM.bl cells) [12] was over 50 µg/mL. For the same substance, the neutralization IC50 [13] was 2.65 µg/mL, the neutralization IC80 [13] was over 50 µg/mL and the neutralization IC50 [14] was over 50 µg/mL. The neutralization IC80 [14] was over 50 µg/mL, the neutralization IC50 [15] was 0.135 µg/mL and the neutralization IC80 [15] was over 50 µg/mL. It also gave a neutralization IC50 [16] of 0.003 µg/mL, a neutralization IC80 [16] of 0.013 µg/mL and a neutralization IC50 [17] of over 50 µg/mL. It also gave a neutralization IC80 [17] of over 50 µg/mL, a neutralization IC50 [18] of under 0.001 µg/mL and a neutralization IC80 [18] of 0.003 µg/mL. For the same substance, the neutralization IC50 [19] was 0.017 µg/mL, the neutralization IC80 [19] was over 50 µg/mL and the neutralization IC50 [20] was over 50 µg/mL. The neutralization IC80 [20] was over 50 µg/mL, the neutralization IC50 [21] was 0.029 µg/mL and the neutralization IC80 [21] was 0.522 µg/mL. It also gave a neutralization IC50 [22] of 0.005 µg/mL, a neutralization IC80 [22] of 0.014 µg/mL and an IC50 (Titer in TZM.bl cells) [23] of 0.13 µg/mL. The IC80 (Titer in TZM.bl cells) [23] was over 50 µg/mL, the neutralization IC50 [24] was over 50 µg/mL and the neutralization IC80 [24] was over 50 µg/mL. For the same substance, the neutralization IC50 [25] was over 50 µg/mL, the neutralization IC80 [25] was over 50 µg/mL and the neutralization IC50 [26] was 0.01 µg/mL. The neutralization IC80 [26] was over 50 µg/mL, the neutralization IC50 [27] was 0.002 µg/mL and the neutralization IC80 [27] was 0.021 µg/mL. It also gave an IC50 (Titer in TZM.bl cells) [28] of 0.004 µg/mL, an IC80 (Titer in TZM.bl cells) [28] of 0.027 µg/mL and an IC50 (Titer in TZM.bl cells) [29] of 0.061 µg/mL. For the same substance, the IC80 (Titer in TZM.bl cells) [29] was over 50 µg/mL, the IC50 (Titer in TZM.bl cells) [30] was over 50 µg/mL and the IC80 (Titer in TZM.bl cells) [30] was over 50 µg/mL. The neutralization IC50 [31] was 0.609 µg/mL, the neutralization IC80 [31] was over 50 µg/mL and the neutralization IC50 [32] was over 50 µg/mL. The neutralization IC80 [32] was over 50 µg/mL, the neutralization IC50 [33] was 0.008 µg/mL and the neutralization IC80 [33] was 0.045 µg/mL. It also gave a neutralization IC50 [34] of 0.027 µg/mL, a neutralization IC80 [34] of 5.16 µg/mL and a neutralization IC50 [35] of 0.009 µg/mL. The neutralization IC80 [35] was over 50 µg/mL, the neutralization IC50 [36] was over 50 µg/mL and the neutralization IC80 [36] was over 50 µg/mL.
